Sequences and labels used below:
B1: MYC-SCOC (isoform 3) WT [human] / GFP-GABARAP [not stated] (parent complex)
chain 1: MDGSRKEEEEDSTFTNISLADDIDHSSRILYPRPKSLLPKMMNADMDVDAENQVELEEKTRLINQVLELQHTLEDLSARVDAVKEENLKLKSENQVLGQYIENLMSASSVFQTTDTKSKRK
chain 2: MKFVYKEEHPFEKRRSEGEKIRKKYPDRVPVIVEKAPKARIGDLDKKKYLVPSDLTVGQFYFLIRKRIHLRAEDALFFFVNNVIPPTSATMGQLYQEHHEEDFFLYIAYSDESVYGL

Variants of B1 are the subject of this assay. Put plainly: GFP-Trap immunoprecipitation, Western blot quantification; HEK293A lysates mixed prior to IP; mean ± s.d.; n = 3; read off a plot. A general note: Immunoblotting shows a protein as a band on a membrane.
For the variant chain 1 S18E, the response was ~18 % binding.
For chain 1 S12E, chain 1 T13E, chain 1 T15E, chain 1 S18E the value was ~100 % binding; for chain 1 S12E, chain 1 T15E, ~63 % binding.

These data come from publication PMC8202330 (2021).
